The target in experiment [1] is MLL1 core complex (MWRAD2 holo-complex) (human) (UniProt Q03164). Kind of experiment: AUC.
For experiment [2] the target is unchanged. As to the kind of experiment: AUC. The source holds these as a separate data set.

Where two headings read alike, the source gives them in different places.

Among the data in article doi:10.1101/870667 are stoichiometry N values, retold here.

As to “MLL1 core complex (MWRAD2 holo-complex) (from UniProt Q03164;P61964;Q15291;Q9UBL3-3;Q9C005)”, the values for the stoichiometry N in experiment [1] and in experiment [2] were 18 and 2, respectively.

As a reminder, the stoichiometry N is the number of molecules, sites or subunits per partner or assembly.
